The assay relates to tracheobronchial secretion in rats. The experiment in a line: Mucolytic activity in rats: tracheobronchial secretion of fluorescein sodium (FINa). Type of assay: in vivo, rat (Swiss Albino Rats). The settings on record: for Percentage (%) Enhancement of FINa secretion compared to Normal: versus normal group (G1). As for the experimental part:
The effect of the compositions of the present invention was studied in animals. For this study, screening effect of synergistic combination of compositions/formulations comprising N-Acetyl-L-Cysteine, Lactoferrin and additional active ingredients for mucolytic activity in rat was performed. The following trials were carried out:
Eighty-Four (84) rats including male and female (Swiss Albino Rats) divided into 14 groups (6 per group) were maintained in animal house in a light/dark atmosphere based on a 12 hour cycle having temperature and relative humidity in the range of 19 to 25±2° C. and 30-70%, respectively. To maintain the appropriate conditions, temperature and relative humidity were recorded three times daily. All animals were acclimatized for a minimum period of five days. Animals were maintained in the test setup for minimum 30 minutes once during the acclimatization period to reduce the stress. Animals were weighed on the day of receipt and observed daily for abnormalities if any. Detailed records of acclimatization were also maintained. Rats were housed 3 per cage in clean, sterilized Polypropylene cages. During complete experiments, animals were supplied with the standard certified rat pellet feed and drinking water treated by reverse osmosis ad libitum.
In order to evaluate the mucolytic activity in rats, eighty-four (84) rats were screened and divided into Fourteen (14) groups. For a comparative analysis, groups were divided and treated as below:
Tracheobronchial secretion in rats, expressed by the amount of fluorescein sodium (FINa) dye excreted into the respiratory tract, was measured by modification of methods published earlier.
Lactoferrin, Carotenoid, N-Acetyl-L-Cysteine or their combinations (G4-G14) were suspended in 1% Acacia. […]
The tracheobronchial lavage fluid (4.9±0.1 ml) was centrifuged (3500 rpm for 10 minutes) and the supernatant was transferred to STP B & L tubes. The fluorescence intensity of the supernatant was measured with a Genesys 20 spectrophotometer set at a wavelength of 510 nm (emission).

B1: Lactoferrin (protein, UniProt P02788 20-710, looked up)
Lactotransferrin: GRRRSVQWCAVSQPEATKCFQWQRNMRKVRGPPVSCIKRDSPIQCIQAIAENRADAVTLDGGFIYEAGLAPYKLRPVAAEVYGTERQPRTHYYAVAVVKKGGSFQLNELQGLKSCHTGLRRTAGWNVPIGTLRPFLNWTGPPEPIEAAVARFFSASCVPGADKGQFPNLCRLCAGTGENKCAFSSQEPYFSYSGAFKCLRDGAGDVAFIRESTVFEDLSDEAERDEYELLCPDNTRKPVDKFKDCHLARVPSHAVVARSVNGKEDAIWNLLRQAQEKFGKDKSPKFQLFGSPSGQKDLLFKDSAIGFSRVPPRIDSGLYLGSGYFTAIQNLRKSEEEVAARRARVVWCAVGEQELRKCNQWSGLSEGSVTCSSASTTEDCIALVLKGEADAMSLDGGYVYTAGKCGLVPVLAENYKSQQSSDPDPNCVDRPVEGYLAVAVVRRSDTSLTWNSVKGKKSCHTAVDRTAGWNIPMGLLFNQTGSCKFDEYFSQSCAPGSDPRSNLCALCIGDEQGENKCVPNSNERYYGYTGAFRCLAENAGDVAFVKDVTVLQNTDGNNNEAWAKDLKLADFALLCLDGKRKPVTEARSCHLAMAPNHAVVSRMDKVERLKQVLLHQQAKFGRNGSDCPDKFCLFQSETKNLLFNDNTECLARLHGKTTYEKYLGPQYVAGITNLKKCSTSPLLEACEFLRK
notes: multifunctional globular glycoprotein of the transferrin family, molecular mass about 80 kDa
As for B1, the “Fluorescein Sodium (FINa) Secretion” value (dosed 30 minutes before i.v. FINa 300 mg/kg, tracheobronchial lavage one hour after administration, doses as Table 1, mean±SEM) is on record as 1.79 ± 0.04 μg/100 g/h. Further, the “Percentage (%) Enhancement of FINa secretion compared to Normal” value (doses as Table 1) was found to be 25.17 ± 1% and the “Percentage (%) Enhancement of FINa secretion compared to Normal” value (doses as Table 1, listed as Lactoferrin) is 25.17%.

The values are drawn from patent US12508302B2, “Pharmaceutical composition providing mucolytic effect” (FRIMLINE PRIVATE LIMITED, priority 2022, dated 2025).
